Assay results from FireProtDB (doi:10.1021/bi048926x).
Values joined by “and” are separate entries in the source; they are usually repeats but may differ in a detail not shown here. Equal values may be shown once.

B1: Azurin, P00282 (parent)
chain: MLRKLAAVSLLSLLSAPLLAAECSVDIQGNDQMQFNTNAITVDKSCKQFTVNLSHPGNLPKNVMGHNWVLSTAADMQGVVTDGMASGLDKDYLKPDDSRVIAHTKLIGSGEKDSVTFDVSKLKEGEQYMFFCTFPGHSALMKGTLTLK

Variants of: B1
Settings: Pseudomonas aeruginosa (strain ATCC 15692 / DSM 22644 / CIP 104116 / JCM 14847 / LMG 12228 / 1C / PRS 101 / PAO1), pH 7, Thermal, reversible: No, structure 5AZU, whole UniProt chain shown
[1] = DSC, Potassium phosphate 100 mM

K44R
Tm (Absorbance, Phosphate 10 mM): 76 °C | change of melting temperature, mutant - wild type (higher = more stable) (Absorbance, Phosphate 10 mM): -2 °C | change of melting temperature, mutant - wild type (higher = more stable) [1]: 0.8 °C and 0.6 °C and 1 °C | unfolding enthalpy (calorimetric) [1]: 124 kcal/mol and 150 kcal/mol and 75.5 kcal/mol

D43E K148R K44R
Tm (Absorbance, Phosphate 10 mM): 75 °C | change of melting temperature, mutant - wild type (higher = more stable) (Absorbance, Phosphate 10 mM): -3 °C | change of melting temperature, mutant - wild type (higher = more stable) [1]: -1.2 °C and -0.9 °C and -1.1 °C

D82C K94C
Tm (Absorbance, Phosphate 10 mM): 78 °C | change of melting temperature, mutant - wild type (higher = more stable) (Absorbance, Phosphate 10 mM): 0 °C

D43E K148R
Tm (Absorbance, Phosphate 10 mM): 74 °C | change of melting temperature, mutant - wild type (higher = more stable) (Absorbance, Phosphate 10 mM): -4 °C | unfolding enthalpy (calorimetric) [1]: 89.2 kcal/mol and 108 kcal/mol and 122 kcal/mol
